# Measured values reported in publication PMC12216489, “Deep mutational scanning identifies Cas1 and Cas2 variants that enhance type II-A CRISPR-Cas spacer acquisition” (Nature Communications, 2025).
# T1: Streptococcus pyogenes Cas1 (S. pyogenes, UniProt Q99ZW1 1-289)
# T1 construct: Cas1 of the Streptococcus pyogenes SF370 type II-A CRISPR-Cas locus; One of the plasmids pRAH246, pRAH248 or pRAH249; which plasmid holds which variant is in Supplementary Data 2; Fractions with cleaved Cas1 were pooled after SUMO protease digestion; also called wild-type Cas1; source: E. coli Rosetta 2(DE3) BL21, purified (Ni-NTA, SUMO protease, HiTrap Heparin, Superdex 200)
# T1 sequence (looked up): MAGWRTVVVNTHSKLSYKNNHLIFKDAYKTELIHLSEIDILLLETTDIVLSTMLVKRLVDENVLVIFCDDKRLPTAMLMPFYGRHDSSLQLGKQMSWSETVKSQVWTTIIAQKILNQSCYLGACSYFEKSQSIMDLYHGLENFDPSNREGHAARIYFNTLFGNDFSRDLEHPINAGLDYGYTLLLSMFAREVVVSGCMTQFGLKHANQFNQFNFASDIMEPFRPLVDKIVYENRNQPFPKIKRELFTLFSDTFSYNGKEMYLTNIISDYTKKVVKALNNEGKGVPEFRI
# T2: Streptococcus pyogenes Cas1 R5A (S. pyogenes, UniProt Q99ZW1 1-289, R5A)
# T2 construct: Cas1 of the Streptococcus pyogenes SF370 type II-A CRISPR-Cas locus with R5A; One of the plasmids pRAH246, pRAH248 or pRAH249; which plasmid holds which variant is in Supplementary Data 2; source: E. coli Rosetta 2(DE3) BL21, purified (Ni-NTA, SUMO protease, HiTrap Heparin, Superdex 200)
# T2 sequence (looked up): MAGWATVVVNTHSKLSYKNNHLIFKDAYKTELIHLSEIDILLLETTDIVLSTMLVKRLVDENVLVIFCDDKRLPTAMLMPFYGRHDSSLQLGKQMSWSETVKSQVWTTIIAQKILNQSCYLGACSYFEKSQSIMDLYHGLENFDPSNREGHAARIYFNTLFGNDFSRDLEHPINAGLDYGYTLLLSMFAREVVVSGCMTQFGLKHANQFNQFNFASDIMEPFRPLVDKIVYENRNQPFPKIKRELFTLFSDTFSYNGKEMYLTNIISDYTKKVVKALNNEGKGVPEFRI
# T3: Streptococcus pyogenes Cas1 R5K (S. pyogenes, UniProt Q99ZW1 1-289, R5K)
# T3 construct: Cas1 of the Streptococcus pyogenes SF370 type II-A CRISPR-Cas locus with R5K; One of the plasmids pRAH246, pRAH248 or pRAH249; which plasmid holds which variant is in Supplementary Data 2; source: E. coli Rosetta 2(DE3) BL21, purified (Ni-NTA, SUMO protease, HiTrap Heparin, Superdex 200)
# T3 sequence (looked up): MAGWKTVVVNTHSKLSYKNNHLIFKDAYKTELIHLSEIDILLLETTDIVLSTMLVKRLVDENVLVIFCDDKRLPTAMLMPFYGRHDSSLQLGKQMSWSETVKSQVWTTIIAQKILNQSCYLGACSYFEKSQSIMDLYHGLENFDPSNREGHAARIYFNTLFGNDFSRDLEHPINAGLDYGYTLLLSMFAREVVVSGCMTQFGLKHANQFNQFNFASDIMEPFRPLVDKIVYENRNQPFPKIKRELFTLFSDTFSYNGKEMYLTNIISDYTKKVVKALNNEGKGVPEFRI
# B1: Streptococcus pyogenes Cas2 (natural protein, S. pyogenes, UniProt Q99ZW0 1-113, looked up)
# chain: MSYRYMRMILMFDMPTDTAEERKAYRKFRKFLLSEGFIMHQFSIYSKLLLNNTANNAMIGRLREHNPNKGNITLLTVTEKQFARMIYLHGERNNCIANSDERLVFLGEAFDES
# notes: Cas2 of the Streptococcus pyogenes SF370 type II-A CRISPR-Cas locus; One of the plasmids pRAH247, pRAH272 or pRAH273; which plasmid holds which variant is in Supplementary Data 2; Same protocol as for Cas1; also called wild-type Cas2; source: E. coli Rosetta 2(DE3) BL21, purified (Ni-NTA, SUMO protease, HiTrap Heparin, Superdex 200)
# B2: Streptococcus pyogenes Cas2 Y5F (natural protein, S. pyogenes, UniProt Q99ZW0 1-113, looked up)
# chain: MSYRFMRMILMFDMPTDTAEERKAYRKFRKFLLSEGFIMHQFSIYSKLLLNNTANNAMIGRLREHNPNKGNITLLTVTEKQFARMIYLHGERNNCIANSDERLVFLGEAFDES
# notes: Cas2 of the Streptococcus pyogenes SF370 type II-A CRISPR-Cas locus with Y5F; One of the plasmids pRAH247, pRAH272 or pRAH273; which plasmid holds which variant is in Supplementary Data 2; source: E. coli Rosetta 2(DE3) BL21, purified (Ni-NTA, SUMO protease, HiTrap Heparin, Superdex 200)
# B3: Streptococcus pyogenes Cas2 Y5A (natural protein, S. pyogenes, UniProt Q99ZW0 1-113, looked up)
# chain: MSYRAMRMILMFDMPTDTAEERKAYRKFRKFLLSEGFIMHQFSIYSKLLLNNTANNAMIGRLREHNPNKGNITLLTVTEKQFARMIYLHGERNNCIANSDERLVFLGEAFDES
# notes: Cas2 of the Streptococcus pyogenes SF370 type II-A CRISPR-Cas locus with Y5A; One of the plasmids pRAH247, pRAH272 or pRAH273; which plasmid holds which variant is in Supplementary Data 2; source: E. coli Rosetta 2(DE3) BL21, purified (Ni-NTA, SUMO protease, HiTrap Heparin, Superdex 200)
# Assays:
# Assay in all cases: SEC; analytical SEC on Superdex 200 Increase 10/300 GL in SEC buffer (20 mM HEPES pH 7.5, 500 mM NaCl, 5% v/v glycerol, 5 mM DTT) at 4 °C; Cas1 variants (15-100 μM, 2 equiv.) mixed with Cas2 variants (1 equiv.), incubated at 4 °C for 1 h before injection; fractions analysed by SDS-PAGE
# Settings in all cases: both partners purified
# [1] = molecular target: T1, Streptococcus pyogenes Cas1
# [2] = molecular target: T2, Streptococcus pyogenes Cas1 R5A
# [3] = molecular target: T3, Streptococcus pyogenes Cas1 R5K
Binder,binding result [1],binding result [2],binding result [3]
B1,binds,binds,binds
B2,binds,–,–
B3,binds,–,–
